Laboratory results: the PETadex activity labels (doi:10.3389/fbioe.2022.865787)

Tests used:
p-NP-C10 = settings: pH 8; 35 °C
p-NP-C12 = settings: pH 8; 35 °C
p-NP-C14 = settings: pH 8; 35 °C
p-NP-C16 = settings: pH 8; 35 °C
p-NP-C18 = settings: pH 8; 35 °C
p-NP-C2 = settings: pH 8; 35 °C
p-NP-C4 = settings: pH 8; 35 °C
p-NP-C6 = settings: pH 8; 35 °C
p-NP-C8 = settings: pH 8; 35 °C
pNPB = experiment: Proxy for plastic degradation [Absorbance @ 405nm]
PET [1] = experiment: Proxy for plastic degradation [Released monomer concentration (HPLC/LC-MS) (TPA)]; settings: pH 8.5
PET [2] = experiment: Proxy for plastic degradation [Released monomer concentration (HPLC/LC-MS) (BHET)]; settings: pH 8.5
PET [3] = experiment: Proxy for plastic degradation [Released monomer concentration (HPLC/LC-MS) (MHET)]; settings: pH 8.5
PET [4] = experiment: Proxy for plastic degradation [Released monomer concentration (HPLC/LC-MS) (Total aromatic products)]; settings: pH 8.5

B1: unnamed (protein)
chain: MLTHSISPEETDGGRRTPLSRMSRLAARVGVTLSLAAGLTAGVTAPAHASNPYERGPAPTESSVTAVRGYFDTDTDTVSSLVSGFGGGTIYYPTDTSEGTFGGVVIAPGYTASQSSMAWMGHRIASQGFVVFTIDTITRYDQPDSRGRQIEAALDYLVEDSDVADRVDGNRLAVMGHSMGGGGTLAAAENRPELRAAIPLTPWHLQKNWSDVEVPTMIIGAENDTVASVRTHSIPFYESLDEDLERAYLELDGASHFAPNISNTVIAKYSISWLKRFVDEDERYEQFLCPPPDTGLFSDFSDYRDSCPHTT
- Km (p-NP-C10): 4930 µM
- kcat (p-NP-C10): 69.9 s⁻¹
- kcat/Km (p-NP-C10): 14200 M⁻¹ s⁻¹
- Km (p-NP-C12): 1680 µM
- kcat (p-NP-C12): 30.5 s⁻¹
- kcat/Km (p-NP-C12): 18200 M⁻¹ s⁻¹
- Km (p-NP-C14): 190 µM
- kcat (p-NP-C14): 9.87 s⁻¹
- kcat/Km (p-NP-C14): 51900 M⁻¹ s⁻¹
- Km (p-NP-C16): 150 µM
- kcat (p-NP-C16): 4.79 s⁻¹
- kcat/Km (p-NP-C16): 31900 M⁻¹ s⁻¹
- Km (p-NP-C18): 450 µM
- kcat (p-NP-C18): 14.3 s⁻¹
- kcat/Km (p-NP-C18): 31800 M⁻¹ s⁻¹
- Km (p-NP-C2): 550 µM
- kcat (p-NP-C2): 4.47 s⁻¹
- kcat/Km (p-NP-C2): 8130 M⁻¹ s⁻¹
- Km (p-NP-C4): 1330 µM
- kcat (p-NP-C4): 14.1 s⁻¹
- kcat/Km (p-NP-C4): 10600 M⁻¹ s⁻¹
- Km (p-NP-C6): 4610 µM
- kcat (p-NP-C6): 41.7 s⁻¹
- kcat/Km (p-NP-C6): 9050 M⁻¹ s⁻¹
- Km (p-NP-C8): 2550 µM
- kcat (p-NP-C8): 79.4 s⁻¹
- kcat/Km (p-NP-C8): 31100 M⁻¹ s⁻¹
- Proxy for plastic degradation (pNPB; pH 8): 100%
- Proxy for plastic degradation (pNPB; pH 8, 0 h): 100%
- Proxy for plastic degradation (pNPB; pH 8.5): 97.5%
- Proxy for plastic degradation (PET [1]; 12 h): 5 µM
- Proxy for plastic degradation (PET [1]; 24 h): 12.5 µM
- Proxy for plastic degradation (PET [1]; 36 h): 25 µM
- Proxy for plastic degradation (PET [1]; 48 h): 50 µM
- Proxy for plastic degradation (PET [1]; 60 h): 70 µM
- Proxy for plastic degradation (PET [1]; 72 h): 75 µM
- Proxy for plastic degradation (PET [1]; 84 h): 120 µM
- Proxy for plastic degradation (PET [1]; 96 h): 150 µM
- Proxy for plastic degradation (PET [1]; 108 h): 180 µM
- Proxy for plastic degradation (PET [2]): 1 µM
- Proxy for plastic degradation (PET [3]; 12 h): 5 µM
- Proxy for plastic degradation (PET [3]; 24 h): 10 µM
- Proxy for plastic degradation (PET [3]; 36 h): 20 µM
- Proxy for plastic degradation (PET [3]; 48 h): 70 µM
- Proxy for plastic degradation (PET [3]; 60 h): 105 µM
- Proxy for plastic degradation (PET [3]; 72 h): 140 µM
- Proxy for plastic degradation (PET [3]; 84 h): 135 µM
- Proxy for plastic degradation (PET [3]; 96 h): 155 µM
- Proxy for plastic degradation (PET [3]; 108 h): 150 µM
- Proxy for plastic degradation (PET [4]; 30 °C): 45 µM
- Proxy for plastic degradation (PET [4]; 35 °C): 130 µM
- Proxy for plastic degradation (PET [4]; 40 °C): 230 µM
- Proxy for plastic degradation (PET [4]; 45 °C): 330 µM
- Proxy for plastic degradation (PET [4]; 50 °C): 100 µM

B2: unnamed (protein)
chain: MLTHSISPEETDGGRRTPLSRMSRLAARVGVTLSLAAGLTAGVTAPAHASNPYERGPAPTESSVTAVRGYFDTDTDTVSSLVSGFGGGTIYYPTDTSEGTFGGVVIAPGYTASQSSMAWMGHRIASQGFVVFTIDTITRYDQPDSRGRQIEAALDYLVEDSDVADRVDGNRLAVMGHSMGGGGTLAAAENRPELRAAIPLTPWHLQKNWSDVEVPTMIIGAENDTVASVRTHSIPFYESLDEDLERAYLELAGASHFAPNISNTVIAKYSISWLKRFVDEDERYEQFLCPPPDTGLFSDFSDYRDSCPHTT
- Proxy for plastic degradation (pNPB; pH 8, 0 h): 100%
- Proxy for plastic degradation (pNPB; pH 8, 5 °C): 15%
- Proxy for plastic degradation (pNPB; pH 8, 10 °C): 17.5%
- Proxy for plastic degradation (pNPB; pH 8, 15 °C): 20%
- Proxy for plastic degradation (pNPB; pH 8, 20 °C): 32.5%
- Proxy for plastic degradation (pNPB; pH 8, 25 °C): 50%
- Proxy for plastic degradation (pNPB; pH 8, 30 °C): 90%
- Proxy for plastic degradation (pNPB; pH 8, 35 °C): 100%
- Proxy for plastic degradation (pNPB; pH 8, 40 °C): 80%
- Proxy for plastic degradation (pNPB; pH 8, 45 °C): 70%
- Proxy for plastic degradation (pNPB; pH 8, 50 °C): 37.5%
- Proxy for plastic degradation (pNPB; pH 8, 55 °C): 25%
- Proxy for plastic degradation (pNPB; pH 8, 60 °C): 15%
- Proxy for plastic degradation (pNPB; pH 8, 65 °C): 12.5%
- Proxy for plastic degradation (pNPB; pH 8, 70 °C): 10%
- Proxy for plastic degradation (pNPB; pH 8, 20 h): 75%
- Proxy for plastic degradation (pNPB; pH 8, 40 h): 70%
- Proxy for plastic degradation (pNPB; pH 8, 60 h): 55%
- Proxy for plastic degradation (pNPB; pH 8, 80 h): 40%
- Proxy for plastic degradation (pNPB; pH 8, 100 h): 35%
- Proxy for plastic degradation (pNPB; pH 8, 120 h): 25%

B3: unnamed (protein)
chain: MLTHSISPEETDGGRRTPLSRMSRLAARVGVTLSLAAGLTAGVTAPAHASNPYERGPAPTESSVTAVRGYFDTDTDTVSSLVSGFGGGTIYYPTDTSEGTFGGVVIAPGYTASQSSMAWMGHRIASQGFVVFTIDTITRYDQPDSRGRQIEAALDYLVEDSDVADRVDGNRLAVMGHSMGGGGTLAAAENRPELRAAIPLTPWHLQKNWSDVEVPTMIIGAENDTVASVRTHSIPFYESLDEDLERAYLELDGASHFAPNISNTVIAKYSISWLKRFVDEDERYEQFLCPPPDTGLFSDFADYRDSCPHTT
- Proxy for plastic degradation (pNPB; pH 8, 0 h): 100%
- Proxy for plastic degradation (pNPB; pH 8, 5 °C): 42.5%
- Proxy for plastic degradation (pNPB; pH 8, 10 °C): 45%
- Proxy for plastic degradation (pNPB; pH 8, 15 °C): 47.5%
- Proxy for plastic degradation (pNPB; pH 8, 20 °C): 55%
- Proxy for plastic degradation (pNPB; pH 8, 25 °C): 75%
- Proxy for plastic degradation (pNPB; pH 8, 30 °C): 100%
- Proxy for plastic degradation (pNPB; pH 8, 35 °C): 92.5%
- Proxy for plastic degradation (pNPB; pH 8, 40 °C): 87.5%
- Proxy for plastic degradation (pNPB; pH 8, 45 °C): 77.5%
- Proxy for plastic degradation (pNPB; pH 8, 50 °C): 62.5%
- Proxy for plastic degradation (pNPB; pH 8, 55 °C): 35%
- Proxy for plastic degradation (pNPB; pH 8, 60 °C): 20%
- Proxy for plastic degradation (pNPB; pH 8, 65 °C): 17.5%
- Proxy for plastic degradation (pNPB; pH 8, 70 °C): 15%
- Proxy for plastic degradation (pNPB; pH 8, 20 h): 87.5%
- Proxy for plastic degradation (pNPB; pH 8, 40 h): 77.5%
- Proxy for plastic degradation (pNPB; pH 8, 60 h): 65%
- Proxy for plastic degradation (pNPB; pH 8, 80 h): 62.5%
- Proxy for plastic degradation (pNPB; pH 8, 100 h): 60%
- Proxy for plastic degradation (pNPB; pH 8, 120 h): 57.5%

B4: unnamed (protein)
chain: MNFPRASRLMQAAVLGGLMAVSAAATAQTNPYARGPNPTAASLEASAGPFTVRSFTVSRPSGYGAGTVYYPTNAGGTVGAIAIVPGYTARQSSIKWWGPRLASHGFVVITIDTNSTLDQPSSRSSQQMAALRQVASLNGTSSSPIYGKVDTARMGVMGWSMGGGGSLISAANNPSLKAAAPQAPWDSSTNFSSVTVPTLIFACENDSIAPVNSSALPIYDSMSRNAKQFLEINGGSHSCANSGNSNQALIGKKGVAWMKRFMDNDTRYSTFACENPNSTRVSDFRTANCS
- Proxy for plastic degradation (PET [1]; 12 h, part of the chain shown): 30 µM
- Proxy for plastic degradation (PET [1]; 24 h, part of the chain shown): 37.5 µM
- Proxy for plastic degradation (PET [1]; 36 h, part of the chain shown): 42.5 µM
- Proxy for plastic degradation (PET [1]; 48 h, part of the chain shown): 47.5 µM
- Proxy for plastic degradation (PET [1]; 60 h, part of the chain shown): 50 µM
- Proxy for plastic degradation (PET [1]; 72 h, part of the chain shown): 60 µM
- Proxy for plastic degradation (PET [1]; 84 h, part of the chain shown): 70 µM
- Proxy for plastic degradation (PET [1]; 96 h, part of the chain shown): 80 µM
- Proxy for plastic degradation (PET [1]; 108 h, part of the chain shown): 100 µM
- Proxy for plastic degradation (PET [3]; 12 h, part of the chain shown): 140 µM
- Proxy for plastic degradation (PET [3]; 24 h, part of the chain shown): 150 µM
- Proxy for plastic degradation (PET [3]; 36 h, part of the chain shown): 160 µM
- Proxy for plastic degradation (PET [3]; 48 h, part of the chain shown): 165 µM
- Proxy for plastic degradation (PET [3]; 60 h, part of the chain shown): 155 µM
- Proxy for plastic degradation (PET [3]; 72 h, part of the chain shown): 155 µM
- Proxy for plastic degradation (PET [3]; 84 h, part of the chain shown): 158 µM
- Proxy for plastic degradation (PET [3]; 96 h, part of the chain shown): 165 µM
- Proxy for plastic degradation (PET [3]; 108 h, part of the chain shown): 158 µM
- Proxy for plastic degradation (PET [4]; 16 h, part of the chain shown): 175 µM
- Proxy for plastic degradation (PET [4]; 27.75 h, part of the chain shown): 200 µM
- Proxy for plastic degradation (PET [4]; 39.5 h, part of the chain shown): 210 µM
- Proxy for plastic degradation (PET [4]; 51.25 h, part of the chain shown): 220 µM
- Proxy for plastic degradation (PET [4]; 60 h, part of the chain shown): 215 µM
- Proxy for plastic degradation (PET [4]; 74.75 h, part of the chain shown): 225 µM
- Proxy for plastic degradation (PET [4]; 86.5 h, part of the chain shown): 235 µM
- Proxy for plastic degradation (PET [4]; 98.25 h, part of the chain shown): 240 µM
- Proxy for plastic degradation (PET [4]; 110 h, part of the chain shown): 250 µM
